# Biological target: CD3D-CD3E-mFc (human; mouse)
# Test: SPR, Biacore T200, method of Section 3.1; affinity for CD3D-CD3E-mFc
substance,measurement,value
TCR/CD3 bispecific molecule IMC-C103C (control bifunctional molecule),Kd,1.08 nM
same,koff,0.00028 s⁻¹
same,kon,258000 M⁻¹ s⁻¹
